{"source": "paper PMC8406324", "about": "“Structural Basis for a Neutralizing Antibody Response Elicited by a Recombinant Hantaan Virus Gn Immunogen” (mBio, 2021)", "binders": {"B1": {"name": "Fab HTN-Gn1 (Fab, V domains shown)", "VH": "QSLVESGGDLVKPEGSLTLTCTASGFSFSSTHWICWVRQAPGKGLEWIACIYVGNTYDSYYANWAKGRFTISKTSSTTVTLQMTTLTAADTATYFCARSGSVFGVVSLWGPGTLVTVSS", "VL": "GQVLTQTPASVSEPVEGTVTIKCQASQSINNWLSWYQQRPGQPPKLLIYDASTVASGVSSRFKGSGSGTEFTLTISDLECADAATYACQSYGYGISITDNSAFGGGTEVVVR", "notes": "also called HTN-Gn1-Fab; HTNV-Gn1-Fab"}, "B2": {"name": "Fab nnHTN-Gn2 (Fab, V domains shown)", "VH": "QSLEESGGRLVTPGTPLTLTCTVSGFSLSNYNMQWVRQAPGKGLEWIGIVYTGGVAWYARWAKGRFTISRTSTTVDLKITSPTTEDTATYFCARAYTSNSDIVFDPWGPGTLVTVSS", "VL": "GQVLTQTPASVSAAVGGTVTIKCQASQSVSTALAWYQQKPGQRPKLLIYLASTLTSGVPSRFKGSGSGTEFTLTISGVECDDAATYYCQQGYSYSNVDNSFGGGTEVVVK", "notes": "also called Fab nnHTNV-Gn2"}}, "biological_target": "T1, recombinant HTNV Gn ectodomain (residues 18 to 371) (Hantaan virus (Orthohantavirus …))", "T1 construct": "also called N-terminal ectodomain of HTNV Gn; soluble HTNV Gn ectodomain", "assay": "crystal structure", "details": "both partners purified", "data": [{"binder": "B1", "values": [{"measurement": "binding result", "value": "binds"}]}, {"binder": "B2", "values": [{"measurement": "binding result", "value": "binds"}]}]}
